Data: patent US20210388087A1 (Chugai, published 2021)
Changes are numbered by the printed parent chain. Each block holds one binder with its values, some of them ahead of it.

Target: T1, CD3 epsilon homodimer protein (UniProt P07766 23-126)
T1 construct: also called CD3 (CD3 epsilon)
Assay: SPR, antibody over immobilised CD3e homodimer;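 further: SPR at 25 °C with CD3 epsilon homodimer amine-coupled to a CM4 sensor chip and antibody flowed over as analyte in HBS-EP+ running buffer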

T1 sequence (P07766 23-126): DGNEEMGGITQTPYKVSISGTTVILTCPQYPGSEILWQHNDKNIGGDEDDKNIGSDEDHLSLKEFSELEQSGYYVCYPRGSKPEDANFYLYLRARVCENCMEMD

KD ratio to GLS3000: 1.24
B1: CE115HA000/GLS3000 N30I (antibody, IgG1, name in Kabat numbering, V domains shown)
VH: QVQLVESGGGVVQPGRSLRLSCAASGFTFSNAWMHWVRQAPGKGLEWVAQIKAKSNNYATYYAESVKGRFTISRDDSKNSLYLQMNSLKTEDTAVYYCRYVHYGAYYGVDAWGQGTTVTVSS
VL: DIVMTQSPLSLPVTPGEPASISCRSSQSLVHSNRITYLHWYQQKPGQAPRLLIYKVSNRFSGVPDRFSGSGSGTDFTLKISRVEAEDVGVYYCGQGTQVPYTFGQGTKLEIK
notes: one-arm IgG1

KD ratio to GLS3000: 0.96
B2: CE115HA000/GLS3000 N53F (antibody, IgG1, name in Kabat numbering, V domains shown)
VH: B1 VH
VL: B1 VL with I35N, N58F
notes: one-arm IgG1

KD ratio to GLS3000: 1.94
B3: CE115HA000/GLS3000 P95G (antibody, IgG1, name in Kabat numbering, V domains shown)
VH: B1 VH
VL: B1 VL with I35N, P100G
notes: one-arm IgG1

KD ratio to GLS3000: 0.88
B4: CE115HA000/GLS3000 N53S (antibody, IgG1, name in Kabat numbering, V domains shown)
VH: B1 VH
VL: B1 VL with I35N, N58S
notes: one-arm IgG1

KD ratio to GLS3000: 0.89
B5: CE115HA000/GLS3000 Q27D (antibody, IgG1, name in Kabat numbering, V domains shown)
VH: B1 VH
VL: B1 VL with Q27D, I35N
notes: one-arm IgG1

KD ratio to GLS3000: 2.47
B6: CE115HA000/GLS3000 N53E (antibody, IgG1, name in Kabat numbering, V domains shown)
VH: B1 VH
VL: B1 VL with I35N, N58E
notes: one-arm IgG1

KD ratio to GLS3000: 1.03
B7: CE115HA000/GLS3000 N30Y (antibody, IgG1, name in Kabat numbering, V domains shown)
VH: B1 VH
VL: B1 VL with I35Y
notes: one-arm IgG1

KD ratio to GLS3000: 1.33
B8: CE115HA000/GLS3000 N53G (antibody, IgG1, name in Kabat numbering, V domains shown)
VH: B1 VH
VL: B1 VL with I35N, N58G
notes: one-arm IgG1

KD ratio to GLS3000: 1.73
B9: CE115HA000/GLS3000 N30R (antibody, IgG1, name in Kabat numbering, V domains shown)
VH: B1 VH
VL: B1 VL with I35R
notes: one-arm IgG1

KD ratio to GLS3000: 12.1
B10: CE115HA000/GLS3000 N30P (antibody, IgG1, name in Kabat numbering, V domains shown)
VH: B1 VH
VL: B1 VL with I35P
notes: one-arm IgG1

KD ratio to GLS3000: 0.82
B11: CE115HA000/GLS3000 N53A (antibody, IgG1, name in Kabat numbering, V domains shown)
VH: B1 VH
VL: B1 VL with I35N, N58A
notes: one-arm IgG1

KD ratio to GLS3000: 1.31
B12: CE115HA000/GLS3000 N53H (antibody, IgG1, name in Kabat numbering, V domains shown)
VH: B1 VH
VL: B1 VL with I35N, N58H
notes: one-arm IgG1

KD ratio to GLS3000: 15.9
B13: CE115HA000/GLS3000 Q90P (antibody, IgG1, name in Kabat numbering, V domains shown)
VH: B1 VH
VL: B1 VL with I35N, Q95P
notes: one-arm IgG1

KD ratio to GLS3000: 1.01
B14: CE115HA000/GLS3000 P95E (antibody, IgG1, name in Kabat numbering, V domains shown)
VH: B1 VH
VL: B1 VL with I35N, P100E
notes: one-arm IgG1

KD ratio to GLS3000: 0.86
B15: CE115HA000/GLS3000 Q27L (antibody, IgG1, name in Kabat numbering, V domains shown)
VH: B1 VH
VL: B1 VL with Q27L, I35N
notes: one-arm IgG1

KD ratio to GLS3000: 1.21
B16: CE115HA000/GLS3000 N53M (antibody, IgG1, name in Kabat numbering, V domains shown)
VH: B1 VH
VL: B1 VL with I35N, N58M
notes: one-arm IgG1

KD ratio to GLS3000: 0.98
B17: CE115HA000/GLS3000 N53P (antibody, IgG1, name in Kabat numbering, V domains shown)
VH: B1 VH
VL: B1 VL with I35N, N58P
notes: one-arm IgG1

KD ratio to GLS3000: 0.97
B18: CE115HA000/GLS3000 N30W (antibody, IgG1, name in Kabat numbering, V domains shown)
VH: B1 VH
VL: B1 VL with I35W
notes: one-arm IgG1

KD ratio to GLS3000: 0.87
B19: CE115HA000/GLS3000 P95A (antibody, IgG1, name in Kabat numbering, V domains shown)
VH: B1 VH
VL: B1 VL with I35N, P100A
notes: one-arm IgG1

KD ratio to GLS3000: 2.62
B20: CE115HA000/GLS3000 N30V (antibody, IgG1, name in Kabat numbering, V domains shown)
VH: B1 VH
VL: B1 VL with I35V
notes: one-arm IgG1

KD ratio to GLS3000: 0.91
B21: CE115HA000/GLS3000 Q90E (antibody, IgG1, name in Kabat numbering, V domains shown)
VH: B1 VH
VL: B1 VL with I35N, Q95E
notes: one-arm IgG1

KD ratio to GLS3000: 2.8
B22: CE115HA000/GLS3000 N53D (antibody, IgG1, name in Kabat numbering, V domains shown)
VH: B1 VH
VL: B1 VL with I35N, N58D
notes: one-arm IgG1

KD ratio to GLS3000: 1.19
B23: CE115HA000/GLS3000 P95S (antibody, IgG1, name in Kabat numbering, V domains shown)
VH: B1 VH
VL: B1 VL with I35N, P100S
notes: one-arm IgG1

KD ratio to GLS3000: 0.89
B24: CE115HA000/GLS3000 Q90A (antibody, IgG1, name in Kabat numbering, V domains shown)
VH: B1 VH
VL: B1 VL with I35N, Q95A
notes: one-arm IgG1

KD ratio to GLS3000: 11.7
B25: CE115HA000/GLS3000 P95L (antibody, IgG1, name in Kabat numbering, V domains shown)
VH: B1 VH
VL: B1 VL with I35N, P100L
notes: one-arm IgG1

KD ratio to GLS3000: 1.35
B26: CE115HA000/GLS3000 N30K (antibody, IgG1, name in Kabat numbering, V domains shown)
VH: B1 VH
VL: B1 VL with I35K
notes: one-arm IgG1

KD ratio to GLS3000: 1.28
B27: CE115HA000/GLS3000 N53Q (antibody, IgG1, name in Kabat numbering, V domains shown)
VH: B1 VH
VL: B1 VL with I35N, N58Q
notes: one-arm IgG1

KD ratio to GLS3000: 38.3
B28: CE115HA000/GLS3000 Q90Y (antibody, IgG1, name in Kabat numbering, V domains shown)
VH: B1 VH
VL: B1 VL with I35N, Q95Y
notes: one-arm IgG1

KD ratio to GLS3000: 1.19
B29: CE115HA000/GLS3000 N30L (antibody, IgG1, name in Kabat numbering, V domains shown)
VH: B1 VH
VL: B1 VL with I35L
notes: one-arm IgG1

KD ratio to GLS3000: 1.06
B30: CE115HA000/GLS3000 Q27R (antibody, IgG1, name in Kabat numbering, V domains shown)
VH: B1 VH
VL: B1 VL with Q27R, I35N
notes: one-arm IgG1

KD ratio to GLS3000: 11.1
B31: CE115HA000/GLS3000 Q90D (antibody, IgG1, name in Kabat numbering, V domains shown)
VH: B1 VH
VL: B1 VL with I35N, Q95D
notes: one-arm IgG1

KD ratio to GLS3000: 1
B32: CE115HA000/GLS3000 N30Q (antibody, IgG1, name in Kabat numbering, V domains shown)
VH: B1 VH
VL: B1 VL with I35Q
notes: one-arm IgG1

KD ratio to GLS3000: 12.7
B33: CE115HA000/GLS3000 N30T (antibody, IgG1, name in Kabat numbering, V domains shown)
VH: B1 VH
VL: B1 VL with I35T
notes: one-arm IgG1

KD ratio to GLS3000: 2.68
B34: CE115HA000/GLS3000 N53T (antibody, IgG1, name in Kabat numbering, V domains shown)
VH: B1 VH
VL: B1 VL with I35N, N58T
notes: one-arm IgG1

KD ratio to GLS3000: 1.2
B35: CE115HA000/GLS3000 N30M (antibody, IgG1, name in Kabat numbering, V domains shown)
VH: B1 VH
VL: B1 VL with I35M
notes: one-arm IgG1

KD ratio to GLS3000: 2.14
B36: CE115HA000/GLS3000 N53V (antibody, IgG1, name in Kabat numbering, V domains shown)
VH: B1 VH
VL: B1 VL with I35N, N58V
notes: one-arm IgG1

KD ratio to GLS3000: 10.6
B37: CE115HA000/GLS3000 N30S (antibody, IgG1, name in Kabat numbering, V domains shown)
VH: B1 VH
VL: B1 VL with I35S
notes: one-arm IgG1

KD ratio to GLS3000: 1.05
B38: CE115HA000/GLS3000 N53K (antibody, IgG1, name in Kabat numbering, V domains shown)
VH: B1 VH
VL: B1 VL with I35N, N58K
notes: one-arm IgG1

KD ratio to GLS3000: 0.99
B39: CE115HA000/GLS3000 N53Y (antibody, IgG1, name in Kabat numbering, V domains shown)
VH: B1 VH
VL: B1 VL with I35N, N58Y
notes: one-arm IgG1

KD ratio to GLS3000: 2.16
B40: CE115HA000/GLS3000 Q27P (antibody, IgG1, name in Kabat numbering, V domains shown)
VH: B1 VH
VL: B1 VL with Q27P, I35N
notes: one-arm IgG1

KD ratio to GLS3000: 1.01
B41: CE115HA000/GLS3000 N53W (antibody, IgG1, name in Kabat numbering, V domains shown)
VH: B1 VH
VL: B1 VL with I35N, N58W
notes: one-arm IgG1

KD ratio to GLS3000: 1.62
B42: CE115HA000/GLS3000 N53L (antibody, IgG1, name in Kabat numbering, V domains shown)
VH: B1 VH
VL: B1 VL with I35N, N58L
notes: one-arm IgG1

KD ratio to GLS3000: 2.37
B43: CE115HA000/GLS3000 P95D (antibody, IgG1, name in Kabat numbering, V domains shown)
VH: B1 VH
VL: B1 VL with I35N, P100D
notes: one-arm IgG1

KD ratio to GLS3000: 2.69
B44: CE115HA000/GLS3000 N53I (antibody, IgG1, name in Kabat numbering, V domains shown)
VH: B1 VH
VL: B1 VL with I35N, N58I
notes: one-arm IgG1

KD ratio to GLS3000: 1.56
B45: CE115HA000/GLS3000 N53R (antibody, IgG1, name in Kabat numbering, V domains shown)
VH: B1 VH
VL: B1 VL with I35N, N58R
notes: one-arm IgG1

KD ratio to GLS3000: 0.96
B46: CE115HA000/GLS3000 Q90S (antibody, IgG1, name in Kabat numbering, V domains shown)
VH: B1 VH
VL: B1 VL with I35N, Q95S
notes: one-arm IgG1

KD ratio to GLS3000: 0.99
B47: CE115HA000/GLS3000 Q27E (antibody, IgG1, name in Kabat numbering, V domains shown)
VH: B1 VH
VL: B1 VL with Q27E, I35N
notes: one-arm IgG1
